From the RNAGym collection of RNA variant scans (doi:10.1073/pnas.2313332121)

B1: TPR t1 (parent)
chain: GACCAAUCUGCCCUCAGAGCUCGAGAACAUCUUCGGAUGCAGAGGAGGCAGGCUUCGGUGGCGCGAUAGCGCCAACGUCCUCAACCUCCAAUGCAUCCCACCACAUGAUGAUGCCUGAAGAGCCUUGGUUUUUUG

Variants of: B1
Test: polymerase ribozyme fitness, log enrichment relative to wild type (log ratio); higher = more active; in vitro selection for triplet polymerase activity
Procedure, shortened: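 Both subunits of a heterodimeric triplet polymerase ribozyme were given their own mutant library, built by PCR and transcribed. Each library was annealed with a biotinylated primer, the partner subunit and triplets, incubated frozen at −7 °C, and its extended constructs gel-excised, captured on streptavidin beads and amplified by RT-PCR, all in one round done in triplicate. Fitness is the logarithm of genotype enrichment relative to wild-type enrichment, with replicates averaged by inverse-variance weighting. That logarithm is base 2, and Illumina-sequenced genotypes needed ≥10 input reads and ≥1 read per output.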

Row | Variant | polymerase ribozyme fitness (log ratio)
1 | G52A C72G | -0.491
2 | G52C C115A A118U U131A | -2.68
3 | A50U G63A U106A G135C | -2.47
4 | G51A C56U A84G A95G U96A | -5.06
5 | G51U G60U G69C C73G | -4.99
6 | G52A G57A A66U G127C | -3.31
7 | C49U C82A | -0.514
8 | C49U C82U | -0.598
9 | C49U C82G | -0.241
10 | G52A C70U G77A U78G C79U G117U | -3.69
11 | G51A G57U A83G A84U A105G U130G | -6.12
12 | C49U C70G | -3.77
13 | C53A G60C | -2.24
14 | C53A G60U | -0.129
15 | A50G U54C G63U C88U U130G | -2.9
16 | A50U A84G | -3.04
17 | A50U C64U C70U | -5.2
18 | G51U G71A A90G C98G C114A C123U | -6.6
19 | A50U C76A G77A | -1.53
20 | C53A C56U | -0.113
21 | G52A G61C | -4.29
22 | A50C G63U U81A | -1.63
23 | G51C G61U C114U | -6.08
24 | G52U G117U U133A | -3.76

Row | Variant | polymerase ribozyme fitness (log ratio)
25 | G52A C76U | -0.303
26 | A50C G60U C97A | -5.38
27 | A50U C115A | -0.803
28 | C49U G113U G117U | -5.67
29 | A50C C56G | -0.303
30 | C49U U106A U126A | -2.78
31 | A50U G63A C124G | -0.873
32 | G51A A95G | -2.62
33 | G52U C56G C89U | -1.53
34 | A50C A66C A100U | -3.95
35 | A50C G77U C115G | -1.98
36 | G51U G110A | -5.3
37 | G52A C64A C101A C115A | -6.42
38 | G51C A111U | -6.8
39 | G52A C62U | -0.528
40 | A50G G63U U130A | -2.47
41 | G51A A68C C79G C80G A84C C124G G128C | -7.23
42 | G52C U125G | -1.59
43 | A50C U55C U106G | -2.2
44 | A50U C101G U106A A118G C124A | 0.335
45 | G52C G61A C62U C85U U96G G117A | -4.79
46 | G51A A121U | -0.44
47 | G52C G58A | -1.15
48 | A50C C53U C97U | -1.01

Row | Variant | polymerase ribozyme fitness (log ratio)
49 | A50U G60U U125G U129C | -3.19
50 | A50C G71U C101G | -2.67
51 | A50G C62A C99U | -6.11
52 | C49U U81G U96C | -4.63
53 | C53A A68G | -2.61
54 | G52C G69U C99U | -1.34
55 | G52C G60U | -1.44
56 | A50C U87C | -0.237
57 | A50U A91C | -3.23
58 | C49U G135C | -0.277
59 | A50U U87A | -1.09
60 | G51C U87A G120A | -3.27
61 | A50C C86G G127U | -2.12
62 | A50U G60U | -1.4
63 | A50C G60C C64A A103G C104A C124U | -5.11
64 | A50C C72A C124U U130A | 0.593
65 | A50C C64U G77A | -0.681
66 | G52U G69U G71C | -1.06
67 | G52C C72A U78C | 0.275
68 | A50G A83C C123U | -0.187
69 | G51A G93U | -4.23
70 | G51A G93A | -3.45
71 | G52C C123G | 0.381
72 | G52U C94U U106A A119G | -0.397

Row | Variant | polymerase ribozyme fitness (log ratio)
73 | G52A G57C | -0.388
74 | A50U G113U | -2.75
75 | A50U G113A | -2.01
76 | G52C C82A U112G | -1.29
77 | G52A G69A G93U C123U | -3.78
78 | A50G C73U C88U C124A | 1.42
79 | A50U A95C | -1.9
80 | G51U C53U C85A G93C | -5.05
81 | G52C G113A C124U | -1.69
82 | C53A G60A C94A G120A | 0.047
83 | G51A C72G C79U | -3.08
84 | G51U C89A | -5.25
85 | G52A C70U | -0.605
86 | A50G C88A C104U G113U U129C | -4.06
87 | G52U U129G | -2.57
88 | G52U C56A C99U | -4.58
89 | G51U U87A G107U C115A A121U | -7.71
90 | G52U C53A C73U | -1.08
91 | A50C G71A C79G C104A | -5.88
92 | C49U C73G A121C | 0.163
93 | G52U G61C U130G | -1.58
94 | G52U G61C C123A | -0.217
95 | G51U G61A C64U U125G | -6.13
96 | G52A G57A G127C | -2.09

Row | Variant | polymerase ribozyme fitness (log ratio)
97 | A50G U78G | 0.0351
98 | G51A C79G C80G A84C C124G G128C | -7.76
99 | G51U C53U | -2.7
100 | C49U C97U | -1.01
101 | A50U C114A | -3.11
102 | G51U G60A C124U | -4.52
103 | G51U C82A A95C C124U | -4.21
104 | G51A C89U U130A | -3.01
105 | G51A A68U C82U C124U | -7.31
106 | G52U C64U U116C | -2.49
107 | G51U U59G G63C G77C C80U U87C C124G U131G | -0.602
108 | G51U A91G | -5.12
109 | C49U U59A U78C A84G | -1.51
110 | A50U U106A | -0.951
111 | C49U G51U C62U C80A G113A C124A | -3.94
112 | A50U C79U | -1.76
113 | C49U C76U U81A C88A | -3.72
114 | G52C C73G C82A | -1.97
115 | G52A C70U C86U C94A A100C C101U C114G | -5.67
116 | A50U G117C | -2.96
117 | C49U C56A A68G | -5.08
118 | A50U G58C G71C C104A C124A | -3.2
119 | G52C G58A C79A C85U | -2.78
120 | A50C G61C U109A | -6.96

Row | Variant | polymerase ribozyme fitness (log ratio)
121 | G51U C72U | -3.99
122 | A50U C73A C80G C85A A90G G127U | -2.82
123 | G51U U78G U112C C123A U130A | -3.11
124 | G51A C79A G113A | -3.64
125 | C49U G71A U130C | -1.63
126 | G52U G77U A90U A121U U130A | -0.805
127 | G51C G63A U78C A111C | -6.17
128 | G52C G57C C79G C86U C115U | -1.83
129 | C49U C124U | 1.03
130 | G52A G69U G71U C102A | -4.53
131 | G51C G61U C64A C79A G117A U133G | -6.91
132 | G51A C82U C124U | 0.555
133 | A50C U87G G120C U131A | 0.982
134 | G52C C79G | -0.316
135 | A50C C62U C94U | -0.553
136 | G51C C80G G135U | -1.27
137 | G51A C73G C124U | -1.14
138 | A50C U81C | 0.175
139 | C49U C76G G113A | -1.81
140 | A50U A111G | -0.837
141 | G52U U106A | -0.189
142 | G51U C97U U132A | -2.51
143 | A50G G77U C86G | -1.1
144 | G51A U112A | -1.47

Row | Variant | polymerase ribozyme fitness (log ratio)
145 | G52U G60A | -0.943
146 | G52U G60C | -0.445
147 | G52U A66U | -1.95
148 | G51A C62U G113A | -3.5
149 | G51A G60A C124G | -1.16
150 | G52U G58A C79G C85A G107U G113A | -6.66
151 | G51U G110A U132A | -5.7
152 | G52C C124U | 1.26
153 | G51U C80U C88A A119G | -1.11
154 | G52C C86A C114U G120U | -5.89
155 | A50U U112A C124U G128C | -4
156 | C49U G120A | 0.0229
157 | G51U C88U G113C | -5.71
158 | A50U C79G G110A G122C | -6.04
159 | G51A C53A G61A C73U U133A | -2.11
160 | G51A A83C | -3.73
161 | C49U G69U A121C | 1.51
162 | G52C C72A C94U G128A | -2.33
163 | A50G C53G G61A U116A G117A | -3.29
164 | G52U G57U G128C | -4.79
165 | A50C G107A | -6.09
166 | A50C G107U | -5.95
167 | G51A C62A U116G C124A | -5.64
